We go through 1 molecule from patent US20220259294A1.

The target of assay [1] is IHF peptide of H. influenzae (Haemophilus influenzae). Put plainly: Kd at pH 4.5 (Octet biosensor per Example 1). On the technique in general: In BLI a coated tip is dipped into the sample, and binding shifts an interference pattern.
For assay [2] the target is unchanged. In words: Kd at pH 5.5 (Octet biosensor per Example 1).
For assay [3] the target is unchanged. Put plainly: Kd at pH 6.5 (Octet biosensor per Example 1).
Assay [4] shares this target. Put plainly: Kd at pH 7.5 (Octet biosensor per Example 1).

B1: TRL295 (antibody, V domains shown)
VH: QVQLVESGGGLVQPGGSLRLSCAASGFPFSSYAMSWVRQAPGKGLEWVSAISGNGADSYYADSVKGRFTTSRDKSKNTVYLQMNRLRAEDTAVYYCAKDMRRYHYDSSGLHFWGQGTLVTVSS
VL: DIELTQAPSVSVYPGQTARITCSGDALPKQYAYWYQQKPGQAPVVVIYKDSERPSGISERFSGSSSGTTVTLTISGVQAGDEADYYCQSVDTSVSYYVVFGGGTKLTVL
A word on the Kd: it is the equilibrium constant for the complex coming apart. High values mean lower affinity, low ones higher affinity. For B1, the Kd in assay [1] came out at 3.7 nM; in assay [2] it was 2.8 nM; in assay [3] it was 2.8 nM; in assay [4], 4.2 nM.
